We go through three molecules from PMC12234955 (Nature Communications, 2025).

Test [1] deals with T1, Norrin-Fc (human Norrin K25-S133, HRV 3C site, human IgG1 Fc, C-terminal FLAG) (human), Q00604.
T1 chain: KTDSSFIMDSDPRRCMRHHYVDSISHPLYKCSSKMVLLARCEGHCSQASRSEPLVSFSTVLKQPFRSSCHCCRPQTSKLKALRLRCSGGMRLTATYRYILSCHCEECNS
Kind of test: cryo-EM structure. As to conditions: remark: other sources report otherwise.

The target in test [2] is Human LGR4 (residues A25-Q833), C-terminal Flag tag (human, UniProt Q9BXB1 25-833). In words: cryo-EM structure.
Test [3] concerns the target LGR4-ECD (LGR4 ectodomain) (human, UniProt Q9BXB1). Kind of test: BLI.

B1: Norrin-Fc (human Norrin K25-S133, HRV 3C site, human IgG1 Fc, C-terminal FLAG), Q00604 25-133 (Fc fusion)
chain: T1 chain
In general, stoichiometry N refers to the number of molecules, sites or subunits per partner or assembly. The molecule B1 displayed a stoichiometry N in test [1] of 2.

B2: Norrin-Fc (human Norrin K25-S133, HRV 3C site, human IgG1 Fc, C-terminal FLAG) (Fc fusion)
chain: T1 chain
For the molecule B2, the “stoichiometry N” value in test [2] was 1 Norrin chains per LGR4 (2:2).

B3: NB18 (VHH)
VHH: QVQLQESGGGSVQAGGSLRLSCAASGYTYSRTCMAWFRQAPGKEREGIATINSDGTTTYADSVKGRFTISRDNAKNTLSLQMNSLKPEDTAMYYCAAASLSTRGCSRAEWEYRYWGQGTQVTVSS
What is called Kd is the constant that tells how readily two partners part at equilibrium. Low readings indicate higher affinity, high ones lower affinity. B3 had a Kd in test [3] of 0.15 nM.
